Results taken from patent US20090142806A1 (Pfizer, published 2009).

Assays:
human IL-17R-Ig = molecular target: T1, human IL-17R-Ig (human); assay: ELISA, IL-17R-Ig coated at 1.5 µg/ml, serial dilutions of biotin-conjugated IL-17F
T1 construct: also called IL-17R-IgG; IL-17R-Ig fusion protein
Procedure: (§1) After washing, saturating concentrations of avidin-horseradish peroxidase (HRP) were added, and plates were incubated for an additional 1 h at RT. Unbound avidin-HRP was washed using PBS/1% BSA, and the ELISA was developed using TBM.

human IL-17RC-Ig = molecular target: T2, human IL-17RC-Ig (human); assay: ELISA, IL-17RC-Ig coated at 1.5 µg/ml, serial dilutions of biotin-conjugated IL-17F
T2 construct: also called IL-17RC-IgG; IL-17RC-Ig fusion protein
T2 sequence (chain, as listed by the source limits assumed): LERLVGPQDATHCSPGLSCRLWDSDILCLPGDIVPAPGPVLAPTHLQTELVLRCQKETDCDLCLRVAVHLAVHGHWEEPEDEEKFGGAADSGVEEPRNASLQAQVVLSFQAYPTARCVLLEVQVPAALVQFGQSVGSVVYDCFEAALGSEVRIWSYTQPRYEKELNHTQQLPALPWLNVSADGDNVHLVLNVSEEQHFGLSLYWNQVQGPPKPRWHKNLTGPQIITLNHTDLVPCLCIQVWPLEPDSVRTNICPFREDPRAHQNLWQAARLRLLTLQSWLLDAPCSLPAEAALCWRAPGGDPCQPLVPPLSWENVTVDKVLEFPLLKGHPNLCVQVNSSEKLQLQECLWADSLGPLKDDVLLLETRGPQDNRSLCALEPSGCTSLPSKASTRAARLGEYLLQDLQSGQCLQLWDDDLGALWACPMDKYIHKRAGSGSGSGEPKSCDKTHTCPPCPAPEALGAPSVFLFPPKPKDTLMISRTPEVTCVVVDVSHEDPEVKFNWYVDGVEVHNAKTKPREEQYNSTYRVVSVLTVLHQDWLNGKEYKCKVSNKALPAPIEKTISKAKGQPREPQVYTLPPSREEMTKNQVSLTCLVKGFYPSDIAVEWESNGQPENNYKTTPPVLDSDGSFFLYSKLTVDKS
Procedure: as §1

T1 sequence (chain, as listed by the source limits assumed): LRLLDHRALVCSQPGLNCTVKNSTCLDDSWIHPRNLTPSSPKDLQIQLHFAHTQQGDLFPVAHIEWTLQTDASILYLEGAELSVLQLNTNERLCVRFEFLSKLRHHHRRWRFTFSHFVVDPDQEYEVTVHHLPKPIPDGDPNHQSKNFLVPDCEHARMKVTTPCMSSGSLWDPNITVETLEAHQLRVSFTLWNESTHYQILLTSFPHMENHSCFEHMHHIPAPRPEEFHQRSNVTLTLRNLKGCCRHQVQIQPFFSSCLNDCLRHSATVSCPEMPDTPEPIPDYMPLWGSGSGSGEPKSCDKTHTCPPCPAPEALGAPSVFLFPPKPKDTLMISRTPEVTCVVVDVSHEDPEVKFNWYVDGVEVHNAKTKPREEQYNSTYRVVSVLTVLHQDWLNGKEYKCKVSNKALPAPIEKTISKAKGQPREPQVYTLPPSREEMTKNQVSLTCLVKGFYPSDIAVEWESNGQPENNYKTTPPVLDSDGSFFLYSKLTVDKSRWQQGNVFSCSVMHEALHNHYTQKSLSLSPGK

EC50 (human IL-17R-Ig): 1.23 µg/mL
EC50 (human IL-17RC-Ig): 15 µg/mL
B1: human IL-17F (IL-17F homodimer) (ligand)
chain: RKIPKVGHTFFQKPESCPPVPGGSMKLDIGIINENQRVSMSRNIESRSTSPWNYTVTWDPNRYPSEVVQAQCRNLGCINAQGKEDISMNSVPIQQETLVVRRKHQGCSVSFQLEKVLVTVGCTCVTPVIHHVQ
modifications: biotin-conjugated in the receptor-binding and inhibition ELISAs (sites not given)
notes: Used as purified protein, as recombinant conditioned media (293, COS) and as natural protein from T cell conditioned media; also called IL-17F/F; interleukin-17F
